Laboratory results reported in patent US20180230200A1 (CITY OF HOPE, published 2018).

T1: UL128 expressed from MVA in BHK-21 cells (human cytomegalovirus, UniProt P16837 28-171)
T1 construct: whole, on cells
T1 sequence: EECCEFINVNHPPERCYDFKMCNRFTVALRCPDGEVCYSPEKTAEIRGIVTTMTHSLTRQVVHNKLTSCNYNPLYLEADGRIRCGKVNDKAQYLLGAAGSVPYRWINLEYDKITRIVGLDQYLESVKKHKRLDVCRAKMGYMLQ

B1: 54E11 (antibody, V domains shown)
VH: QIQLVQSGPELKKPGETVKISCKASGYTFTSYGMNWVKQAPGKGLKWMGWINTYTGEPTYADDFKGRFAFSLETSASTAYLQINNLKNEDTATYFCAREHYYGINPLLGCWGQGTTLTVSS
VL: DIQMTQTTSSLSASLGDRVTISCSASQGISNYLNWYQQKPDGTVKLLIYDTSSLHSGVPSRFSGSGSGTDYSLTISNLEPEDIATYYCQQYSKLPYTFGGGTKLEIK
notes: also called NAb 54E11
B2: 21F6 (antibody, V domains shown)
VH: QIQLVQSGPELKKPGETVKISCKASGYTFTSYGMNWVKQAPGKGLKWMGWINTYTGEPTYADDFKGRFAFSLETSASTAYLQINNLKNEDTATYFCAREHYYGINPLLGCWGQGTTLTVSS
VL: DIQMTQTTSSLSASLGDRVTISCSASQGISNYLNWYQQKPDGTVKLLIYDTSSLHSGVPSRFSGSGSGTDYSLTISNLEPEDIATYYCQQYSKLPYTFGGGTKLEIK
notes: also called NAb 21F6

Assays:
[1] = biological target: T2, gH/gL/UL128/UL130/UL131A pentamer complex expressed from MVA-PC in BHK-21 cells (human cytomegalovirus, UniProt P12824 24-743; P16832 31-278; P16837 28-171; P16772 1-214; F5HET4 19-129); assay: FC competition, MVA-PC BHK-21; unlabelled row Ab; competitor: biotinylated 18F10
T2 construct: whole, on cells

[2] = biological target: T2, gH/gL/UL128/UL130/UL131A pentamer …; assay: FC competition, MVA-PC BHK-21; unlabelled row Ab; competitor: biotinylated 21F6
[3] = biological target: gH/gL/UL128/UL130/UL131A pentamer complex (PC) of HCMV strain TB40/E virus (human cytomegalovirus strain TB40/E); assay: cell-based or functional assay
[4] = biological target: gH/gL/UL128/UL130/UL131A pentamer complex (PC) of HCMV strain TR virus (human cytomegalovirus strain TR); assay: cell-based or functional assay
[5] = biological target: T3, UL131A expressed from MVA in BHK-21 cells (human cytomegalovirus, UniProt F5HET4 19-129); assay: intracellular FC, MVA-infected BHK-21
T3 construct: whole, on cells
Description: (§1) NAb subunit specificity was evaluated by staining BHK-21 cells infected with different MVA recombinants. One or more vectors were used to co-infect BHK-21 at an MOI of 5. […] Four hours post infection cells were fixed and permeabilized using Cytofix/Cytoperm solution (BD Biosciences). NAbs (1 mg/ml) were diluted 1:500 in perm/wash buffer (BD) and added to the cells for 1 hour at 4° C. […] Cells were washed again and resuspended in PBS/0.1% BSA. Fifteen thousand events were collected using the Gallios Flow Cytometer (Beckman Coulter, Miami, Fla., USA) and analyzed with FlowJo Software (Tree Star, Ashland, Oreg., USA). Uninfected cells and cells infected with MVA-Venus were used as controls. GFP expression was analyzed for confirming MVA infection since all the constructs contain a GFP expression cassette (36, 62).
(§2) In order to determine the antigen specificity of the vaccine-derived NAbs, intracellular flow cytometry (FC) staining of permeabilized BHK-21 cells infected with MVA expressing single subunits or combinations of two or more subunits of the PC was evaluated.

[6] = biological target: T4, gH expressed from MVA in BHK-21 cells (human cytomegalovirus, UniProt P12824 24-743); assay: intracellular FC, MVA-infected BHK-21
T4 construct: whole, on cells
Description: as §1, §2

[7] = biological target: T5, gH/gL/UL130 co-expressed from MVA in BHK-21 cells (human cytomegalovirus, UniProt P12824 24-743; P16832 31-278; P16772 1-214); assay: intracellular FC, MVA-infected BHK-21
T5 construct: whole, on cells
Description: as §1, §2

[8] = biological target: T6, gH/gL/UL128/UL130 co-expressed from MVA in BHK-21 cells (human cytomegalovirus, UniProt P12824 24-743; P16832 31-278; P16837 28-171; P16772 1-214); assay: intracellular FC, MVA-infected BHK-21
T6 construct: whole, on cells
Description: as §1, §2

[9] = biological target: T7, UL128/UL131A co-expressed from MVA in BHK-21 cells (human cytomegalovirus, UniProt P16837 28-171; F5HET4 19-129); assay: intracellular FC, MVA-infected BHK-21
T7 construct: whole, on cells
Description: as §1, §2

[10] = biological target: T1, UL128 expressed from MVA in BHK-21 cells; assay: intracellular FC, MVA-infected BHK-21
Description: as §1, §2

[11] = biological target: T8, UL128/UL130 co-expressed from MVA in BHK-21 cells (human cytomegalovirus, UniProt P16837 28-171; P16772 1-214); assay: intracellular FC, MVA-infected BHK-21
T8 construct: whole, on cells
Description: as §1, §2

[12] = biological target: T9, gH/gL/UL131A co-expressed from MVA in BHK-21 cells (human cytomegalovirus, UniProt P12824 24-743; P16832 31-278; F5HET4 19-129); assay: intracellular FC, MVA-infected BHK-21
T9 construct: whole, on cells
Description: as §1, §2

[13] = biological target: T10, gH/gL co-expressed from MVA in BHK-21 cells (human cytomegalovirus, UniProt P12824 24-743; P16832 31-278); assay: intracellular FC, MVA-infected BHK-21
T10 construct: whole, on cells
Description: as §1, §2

[14] = biological target: T11, gH/gL/UL128 co-expressed from MVA in BHK-21 cells (human cytomegalovirus, UniProt P12824 24-743; P16832 31-278; P16837 28-171); assay: intracellular FC, MVA-infected BHK-21
T11 construct: whole, on cells
Description: as §1, §2

[15] = biological target: T12, gH/gL/UL128/UL131A co-expressed from MVA in BHK-21 cells (human cytomegalovirus, UniProt P12824 24-743; P16832 31-278; P16837 28-171; F5HET4 19-129); assay: intracellular FC, MVA-infected BHK-21
T12 construct: whole, on cells
Description: as §1, §2

[16] = biological target: T13, UL130 expressed from MVA in BHK-21 cells (human cytomegalovirus, UniProt P16772 1-214); assay: intracellular FC, MVA-infected BHK-21
T13 construct: whole, on cells
Description: as §1, §2

[17] = biological target: T2, gH/gL/UL128/UL130/UL131A pentamer …; assay: FC competition, MVA-PC BHK-21; unlabelled row Ab; competitor: biotinylated 1B2
[18] = biological target: T2, gH/gL/UL128/UL130/UL131A pentamer …; assay: FC competition, MVA-PC BHK-21; unlabelled row Ab; competitor: biotinylated 54E11
[19] = biological target: T2, gH/gL/UL128/UL130/UL131A pentamer …; assay: FC, biotinylated NAb titrated on MVA-PC-infected BHK-21 (cell surface PC)
[20] = biological target: T2, gH/gL/UL128/UL130/UL131A pentamer …; assay: FC competition, MVA-PC BHK-21; unlabelled row Ab; competitor: biotinylated 12E2
[21] = biological target: T2, gH/gL/UL128/UL130/UL131A pentamer …; assay: FC competition, MVA-PC BHK-21; unlabelled row Ab; competitor: biotinylated 13B5

| Binder | Binding Inhibition (%) [1] [%] | Binding Inhibition (%) [2] [%] | IC50, inhibition of TB40/E cell-to-cell spread in ARPE-19 [3] [µg/mL] | IC50, neutralization of TB40/E infection of ARPE-19 [3] [µg/mL] | IC50, neutralization of TB40/E infection of CTB [3] [µg/mL] | IC50, neutralization of TB40/E infection of HUVEC [3] [µg/mL] | IC50, neutralization of TB40/E infection of MRC-5 [3] [µg/mL] | IC50, inhibition of TR cell-to-cell spread in ARPE-19 [4] [µg/mL] | IC50, neutralization of TR infection of ARPE-19 [4] [µg/mL] | IC50, neutralization of TR infection of HUVEC [4] [µg/mL] | IC50, neutralization of TR infection of MRC-5 [4] [µg/mL] | binding result [5] | binding result [6] | binding result [7] | binding result [8] | binding result [9] | binding result [10] | binding result [11] | binding result [12] | binding result [13] | also measured |
| --- | --- | --- | --- | --- | --- | --- | --- | --- | --- | --- | --- | --- | --- | --- | --- | --- | --- | --- | --- | --- | --- |
| B1 | 0 | 100 | 17 | 0.0034 | 0.0249 | 0.0046 | > 25 | 18 | 0.0034 | 0.0059 | > 25 | no binding | no binding | no binding | no binding | no binding | no binding | no binding | no binding | no binding | binding result [14]: no binding; binding result [15]: no binding; binding result [16]: no binding; Binding Inhibition (%) [17]: 0%; Binding Inhibition (%) [18]: 100%; EC50 [19]: 0.51 nM; Binding Inhibition (%) [20]: 0%; Binding Inhibition (%) [21]: 0% |
| B2 | 0 | 100 | 18 | 0.0026 | 0.0307 | 0.004 | > 25 | 19 | 0.0035 | 0.0059 | > 25 | no binding | no binding | no binding | no binding | no binding | no binding | no binding | no binding | no binding | binding result [14]: no binding; binding result [15]: no binding; binding result [16]: no binding; Binding Inhibition (%) [17]: 0%; Binding Inhibition (%) [18]: 100%; EC50 [19]: 0.62 nM; Binding Inhibition (%) [20]: 0%; Binding Inhibition (%) [21]: 0% |
